Data set [1] addresses histone acetyltransferase p300, full-length, Strep II-tagged (human, UniProt Q09472 1-2414). The experiment in a line: cross-linking.
Data set [2] concerns the molecule itself. The experiment in a line: SEC-MALS.

From PMC12069617 (Nature Communications, 2024) come the findings set out here.

Chain of histone acetyltransferase p300, full-length, Strep II-tagged (Q09472 whole entry): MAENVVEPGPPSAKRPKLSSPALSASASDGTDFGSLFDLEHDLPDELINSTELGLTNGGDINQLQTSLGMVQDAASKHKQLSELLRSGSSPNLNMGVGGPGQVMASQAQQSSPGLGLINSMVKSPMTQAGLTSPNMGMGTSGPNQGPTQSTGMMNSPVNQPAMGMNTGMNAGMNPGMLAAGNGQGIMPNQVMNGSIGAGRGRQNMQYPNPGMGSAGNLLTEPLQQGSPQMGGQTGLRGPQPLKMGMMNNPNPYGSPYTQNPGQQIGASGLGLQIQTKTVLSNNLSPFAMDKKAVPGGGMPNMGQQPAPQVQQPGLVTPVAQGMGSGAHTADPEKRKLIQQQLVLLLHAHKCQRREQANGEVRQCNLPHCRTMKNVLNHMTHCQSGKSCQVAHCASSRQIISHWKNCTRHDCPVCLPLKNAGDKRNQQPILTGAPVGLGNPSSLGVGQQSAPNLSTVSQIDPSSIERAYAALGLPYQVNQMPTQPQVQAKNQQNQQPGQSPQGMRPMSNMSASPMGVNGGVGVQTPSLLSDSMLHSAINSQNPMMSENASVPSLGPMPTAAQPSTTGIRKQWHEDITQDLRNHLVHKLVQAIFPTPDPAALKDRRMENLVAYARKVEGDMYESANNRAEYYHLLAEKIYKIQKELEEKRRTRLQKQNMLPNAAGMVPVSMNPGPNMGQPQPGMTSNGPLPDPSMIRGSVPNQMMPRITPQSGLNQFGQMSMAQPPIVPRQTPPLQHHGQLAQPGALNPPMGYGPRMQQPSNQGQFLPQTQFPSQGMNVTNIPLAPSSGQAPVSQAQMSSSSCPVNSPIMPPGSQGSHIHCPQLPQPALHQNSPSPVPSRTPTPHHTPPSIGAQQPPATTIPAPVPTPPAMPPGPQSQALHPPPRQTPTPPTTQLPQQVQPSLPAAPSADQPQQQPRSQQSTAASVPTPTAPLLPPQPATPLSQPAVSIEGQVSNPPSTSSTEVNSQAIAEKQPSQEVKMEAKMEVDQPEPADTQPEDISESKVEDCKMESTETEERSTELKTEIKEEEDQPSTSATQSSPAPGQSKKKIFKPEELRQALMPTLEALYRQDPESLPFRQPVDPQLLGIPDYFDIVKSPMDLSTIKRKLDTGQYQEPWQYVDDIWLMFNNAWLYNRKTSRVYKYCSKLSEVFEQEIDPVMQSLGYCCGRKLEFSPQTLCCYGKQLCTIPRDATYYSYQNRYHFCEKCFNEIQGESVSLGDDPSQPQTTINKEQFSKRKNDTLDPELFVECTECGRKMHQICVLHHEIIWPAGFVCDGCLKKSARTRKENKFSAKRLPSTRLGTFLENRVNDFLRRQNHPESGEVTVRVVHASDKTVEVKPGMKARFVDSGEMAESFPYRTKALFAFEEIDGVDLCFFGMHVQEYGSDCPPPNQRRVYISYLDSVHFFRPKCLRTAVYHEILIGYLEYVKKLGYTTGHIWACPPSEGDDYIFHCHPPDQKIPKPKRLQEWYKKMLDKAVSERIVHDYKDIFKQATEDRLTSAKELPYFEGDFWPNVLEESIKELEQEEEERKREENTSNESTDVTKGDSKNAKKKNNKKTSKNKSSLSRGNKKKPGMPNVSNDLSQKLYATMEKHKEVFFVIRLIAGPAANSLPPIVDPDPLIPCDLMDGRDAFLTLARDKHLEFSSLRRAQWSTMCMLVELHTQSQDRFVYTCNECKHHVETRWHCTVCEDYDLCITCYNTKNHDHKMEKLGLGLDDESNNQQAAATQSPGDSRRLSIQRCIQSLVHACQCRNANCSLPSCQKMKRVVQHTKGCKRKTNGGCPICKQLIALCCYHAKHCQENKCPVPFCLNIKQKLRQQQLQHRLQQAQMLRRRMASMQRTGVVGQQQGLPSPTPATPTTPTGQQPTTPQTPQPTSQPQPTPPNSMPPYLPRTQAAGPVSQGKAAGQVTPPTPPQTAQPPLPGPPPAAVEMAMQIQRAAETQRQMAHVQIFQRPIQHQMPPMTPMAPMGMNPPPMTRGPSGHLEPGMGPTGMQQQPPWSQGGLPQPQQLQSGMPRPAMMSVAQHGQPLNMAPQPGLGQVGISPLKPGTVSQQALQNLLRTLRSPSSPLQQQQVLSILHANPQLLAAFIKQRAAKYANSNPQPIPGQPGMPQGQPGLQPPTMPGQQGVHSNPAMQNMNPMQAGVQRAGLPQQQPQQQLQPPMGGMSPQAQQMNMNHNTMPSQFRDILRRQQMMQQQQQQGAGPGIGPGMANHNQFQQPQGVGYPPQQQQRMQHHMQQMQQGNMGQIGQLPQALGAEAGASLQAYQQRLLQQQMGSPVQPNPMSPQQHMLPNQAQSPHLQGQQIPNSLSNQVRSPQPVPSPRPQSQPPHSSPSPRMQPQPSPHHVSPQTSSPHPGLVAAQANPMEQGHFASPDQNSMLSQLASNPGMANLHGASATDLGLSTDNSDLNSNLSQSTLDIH

B1: progesterone receptor isoform A (PR-A), full-length, Strep II-tagged (receptor)
chain: MSRSGCKVGDSSGTAAAHKVLPRGLSPARQLLLPASESPHWSGAPVKPSPQAAAVEVEEEDGSESEESAGPLLKGKPRALGGAAAGGGAAAVPPGAAAGGVALVPKEDSRFSAPRVALVEQDAPMAPGRSPLATTVMDFIHVPILPLNHALLAARTRQLLEDESYDGGAGAASAFAPPRSSPCASSTPVAVGDFPDCAYPPDAEPKDDAYPLYSDFQPPALKIKEEEEGAEASARSPRSYLVAGANPAAFPDFPLGPPPPLPPRATPSRPGEAAVTAAPASASVSSASSSGSTLECILYKAEGAPPQQGPFAPPPCKAPGASGCLLPRDGLPSTSASAAAAGAAPALYPALGLNGLPQLGYQAAVLKEGLPQVYPPYLNYLRPDSEASQSPQYSFESLPQKICLICGDEASGCHYGVLTCGSCKVFFKRAMEGQHNYLCAGRNDCIVDKIRRKNCPACRLRKCCQAGMVLGGRKFKKFNKVRVVRALDAVALPQPVGVPNESQALSQRFTFSPGQDIQLIPPLINLLMSIEPDVIYAGHDNTKPDTSSSLLTSLNQLGERQLLSVVKWSKSLPGFRNLHIDDQITLIQYSWMSLMVFGLGWRSYKHVSGQMLYFAPDLILNEQRMKESSFYSLCLTMWQIPQEFVKLQVSQEEFLCMKVLLLLNTIPLEGLRSQTQFEEMRSSYIRELIKAIGLRQKGVVSSSQRFYQLTKLLDNLHDLVKQLHLYCLNTFIQSRALSVEFPEMMSEVIAAQLPKILAGMVKPLLFHKK
modifications: phosphorylated on multiple serine residues (sites not given)
Consider B1, for which the binding result in data set [1] was “binds”.

B2: progesterone receptor isoform B (PR-B), full-length, Strep II-tagged (receptor)
chain: MTELKAKGPRAPHVAGGPPSPEVGSPLLCRPAAGPFPGSQTSDTLPEVSAIPISLDGLLFPRPCQGQDPSDEKTQDQQSLSDVEGAYSRAEATRGAGGSSSSPPEKDSGLLDSVLDTLLAPSGPGQSQPSPPACEVTSSWCLFGPELPEDPPAAPATQRVLSPLMSRSGCKVGDSSGTAAAHKVLPRGLSPARQLLLPASESPHWSGAPVKPSPQAAAVEVEEEDGSESEESAGPLLKGKPRALGGAAAGGGAAAVPPGAAAGGVALVPKEDSRFSAPRVALVEQDAPMAPGRSPLATTVMDFIHVPILPLNHALLAARTRQLLEDESYDGGAGAASAFAPPRSSPCASSTPVAVGDFPDCAYPPDAEPKDDAYPLYSDFQPPALKIKEEEEGAEASARSPRSYLVAGANPAAFPDFPLGPPPPLPPRATPSRPGEAAVTAAPASASVSSASSSGSTLECILYKAEGAPPQQGPFAPPPCKAPGASGCLLPRDGLPSTSASAAAAGAAPALYPALGLNGLPQLGYQAAVLKEGLPQVYPPYLNYLRPDSEASQSPQYSFESLPQKICLICGDEASGCHYGVLTCGSCKVFFKRAMEGQHNYLCAGRNDCIVDKIRRKNCPACRLRKCCQAGMVLGGRKFKKFNKVRVVRALDAVALPQPVGVPNESQALSQRFTFSPGQDIQLIPPLINLLMSIEPDVIYAGHDNTKPDTSSSLLTSLNQLGERQLLSVVKWSKSLPGFRNLHIDDQITLIQYSWMSLMVFGLGWRSYKHVSGQMLYFAPDLILNEQRMKESSFYSLCLTMWQIPQEFVKLQVSQEEFLCMKVLLLLNTIPLEGLRSQTQFEEMRSSYIRELIKAIGLRQKGVVSSSQRFYQLTKLLDNLHDLVKQLHLYCLNTFIQSRALSVEFPEMMSEVIAAQLPKILAGMVKPLLFHKK
modifications: phosphorylated on multiple serine residues (sites not given)
A word on the stoichiometry N: it is a count of units in the complex or per binding partner. For B2, in data set [1], the binding result was “binds”. Also, the “stoichiometry N” value in data set [2] stood at 2.
